Source: paper doi:10.1101/2025.02.26.640373

Target: SHP2^WT-TurboID (UniProt Q06124)

- in vitro phosphatase activity (initial velocity, RFU/s, DiFMUP substrate): +PD-1 pY248 over basal activity: 10 fold
Substance: PD-1 pY248 phosphopeptide
